How the values were obtained:
[1] = Liquid phase kinetic assay of purified MAO-N variants, substrate benzylamine; format: biochemical
Method: (§1) Selected variants were overexpressed by BL21 (DE3) E. coli strain in 700 mL of LB medium with 100 μg mL^−1 ampicillin. 0.5 mM of IPTG was introduced to the culture when OD600 reached 0.6 and the culture was incubated at 25° C., 180 rpm. Cells were harvested after 16-20 hours and purified using 5 mL Histrap FF crude column (GE Healthcare) with an AKTA Explorer 100 protein purification system as described (55).
(§2) A range of amine stock solutions including α-methylbenzylamine, N-amylamine, butylamine, benzylamine or cyclohexylamine (all from Sigma) were prepared in 0.1 M potassium phosphate pH 7.7. The final concentration range of the substrate was between 0.5 mM to 100 mM. A colourimetric assay solution was made up by dissolving Pyrogallol red (0.3 mM final concentration) in 0.1 M potassium phosphate, pH 7.7. The assay was conducted by combining 35 μL of substrate solution, 50 μL of Pyrogallol red solution and 5 μL of horseradish peroxidase (1 mg mL^−1) in a flat bottom 96-well plate and started by adding 110 μL of purified MAO-N. Assay progress was monitored at 550 nm at 25° C. in a Molecular Devices Spectramex M2 plate reader. The data were analysed using Prism7 (GraphPad) which was also used to calculate kinetic parameters such as kcat, km and Vmax.

[2] = MAO-N variant activity to native primary amine substrates (taken together); format: biochemical; details: range over native substrates
Method: as §1, §2

[3] = Liquid phase kinetic assay of purified MAO-N variants, substrate N-amylamine; format: biochemical
Method: as §1, §2

[4] = Liquid phase kinetic assay of purified MAO-N variants, substrate butylamine; format: biochemical
Method: as §1, §2

[5] = cited from earlier work; for kcat, substrate AMBA: Table 3
[6] = Liquid phase kinetic assay of purified MAO-N variants, substrate α-methylbenzylamine; format: biochemical; details: Table 4; kcat for α-methylbenzylamine
Method: as §1, §2

[7] = Table 4, α-methylbenzylamine, Reference {Alexeeva 2002}

Molecule | kcat, substrate BZA ([1]; Table 3) [s⁻¹] | kcat Benzylamine (BZA) ([1]; Table 5) [s⁻¹] | kcat for several primary amine substrates ('wild type speed') [2] [s⁻¹] | kcat, substrate AA ([3]; Table 3) [s⁻¹] | kcat N-amylamine (AA) ([3]; Table 5) [s⁻¹] | kcat, substrate BTA ([4]; Table 3) [s⁻¹] | kcat Butylamine (BTA) ([4]; Table 5) [s⁻¹] | kcat, substrate AMBA ([5]; Reference {Alexeeva 2002}) [s⁻¹] | kcat [5, 7] [s⁻¹] | kcat towards α-MBA ([5]; wild type, literature value) [s⁻¹] | Km [5, 7] [µM] | Improvement over wild type [6]
WT: Wild type monoamine oxidase-N (MAO-N, A. niger), an amine-oxidising biocatalyst (protein, UniProt P46882 1-495, looked up) Monoamine oxidase N: MTSRDGYQWTPETGLTQGVPSLGVISPPTNIEDTDKDGPWDVIVIGGGYCGLTATRDLTVAGFKTLLLEARDRIGGRSWSSNIDGYPYEMGGTWVHWHQSHVWREITRYKMHNALSPSFNFSRGVNHFQLRTNPTTSTYMTHEAEDELLRSALHKFTNVDGTNGRTVLPFPHDMFYVPEFRKYDEMSYSERIDQIRDELSLNERSSLEAFILLCSGGTLENSSFGEFLHWWAMSGYTYQGCMDCLISYKFKDGQSAFARRFWEEAAGTGRLGYVFGCPVRSVVNERDAARVTARDGREFAAKRLVCTIPLNVLSTIQFSPALSTERISAMQAGHVNMCTKVHAEVDNKDMRSWTGIAYPFNKLCYAIGDGTTPAGNTHLVCFGTDANHIQPDEDVRETLKAVGQLAPGTFGVKRLVFHNWVKDEFAKGAWFFSRPGMVSECLQGLREKHRGVVFANSDWALGWRSFIDGAIEEGTRAARVVLEELGTKREVKARL | 4.37 | 4.37 | 4.37 to 6.57 | 6.45 | 6.45 | 6.57 | 6.57 | 0.00283 | 0.00283 | 0.00283 |  | 
D1 N336S: MAO-N variant D1 with mutation N336S, Reference {Alexeeva 2002} (protein, UniProt P46882 1-495, looked up, variant N336S) Monoamine oxidase N: MTSRDGYQWTPETGLTQGVPSLGVISPPTNIEDTDKDGPWDVIVIGGGYCGLTATRDLTVAGFKTLLLEARDRIGGRSWSSNIDGYPYEMGGTWVHWHQSHVWREITRYKMHNALSPSFNFSRGVNHFQLRTNPTTSTYMTHEAEDELLRSALHKFTNVDGTNGRTVLPFPHDMFYVPEFRKYDEMSYSERIDQIRDELSLNERSSLEAFILLCSGGTLENSSFGEFLHWWAMSGYTYQGCMDCLISYKFKDGQSAFARRFWEEAAGTGRLGYVFGCPVRSVVNERDAARVTARDGREFAAKRLVCTIPLNVLSTIQFSPALSTERISAMQAGHVSMCTKVHAEVDNKDMRSWTGIAYPFNKLCYAIGDGTTPAGNTHLVCFGTDANHIQPDEDVRETLKAVGQLAPGTFGVKRLVFHNWVKDEFAKGAWFFSRPGMVSECLQGLREKHRGVVFANSDWALGWRSFIDGAIEEGTRAARVVLEELGTKREVKARL |  |  |  |  |  |  |  | 0.133 | 0.133 |  | 400 | 40-fold
